Laboratory results published in IntAct's records for PubMed 12810663.

B1: DNA mismatch repair protein Mlh1 (Homo sapiens), P40692 (parent)
chain: MSFVAGVIRRLDETVVNRIAAGEVIQRPANAIKEMIENCLDAKSTSIQVIVKEGGLKLIQIQDNGTGIRKEDLDIVCERFTTSKLQSFEDLASISTYGFRGEALASISHVAHVTITTKTADGKCAYRASYSDGKLKAPPKPCAGNQGTQITVEDLFYNIATRRKALKNPSEEYGKILEVVGRYSVHNAGISFSVKKQGETVADVRTLPNASTVDNIRSIFGNAVSRELIEIGCEDKTLAFKMNGYISNANYSVKKCIFLLFINHRLVESTSLRKAIETVYAAYLPKNTHPFLYLSLEISPQNVDVNVHPTKHEVHFLHEESILERVQQHIESKLLGSNSSRMYFTQTLLPGLAGPSGEMVKSTTSLTSSSTSGSSDKVYAHQMVRTDSREQKLDAFLQPLSKPLSSQPQAIVTEDKTDISSGRARQQDEEMLELPAPAEVAAKNQSLEGDTTKGTSEMSEKRGPTSSNPRKRHREDSDVEMVEDDSRKEMTAACTPRRRIINLTSVLSLQEEINEQGHEVLREMLHNHSFVGCVNPQWALAQHQTKLYLLNTTKLSEELFYQILIYDFANFGVLRLSEPAPLFDLAMLALDSPESGWTEEDGPKEGLAEYIVEFLKKKAEMLADYFSLEIDEEGNLIGLPLLIDNYVPPLEGLPIFILRLATEVNWDEEKECFESLSKECAMFYSIRKQYISEESTLSGQQSEVPGSIPNSWKWTVEHIVYKALRSHILPPKHFTEDGNILQLANLPDLYKVFERC
B2: DNA mismatch repair protein Mlh1 (Homo sapiens), P40692 (parent)
chain: B1 chain
partner: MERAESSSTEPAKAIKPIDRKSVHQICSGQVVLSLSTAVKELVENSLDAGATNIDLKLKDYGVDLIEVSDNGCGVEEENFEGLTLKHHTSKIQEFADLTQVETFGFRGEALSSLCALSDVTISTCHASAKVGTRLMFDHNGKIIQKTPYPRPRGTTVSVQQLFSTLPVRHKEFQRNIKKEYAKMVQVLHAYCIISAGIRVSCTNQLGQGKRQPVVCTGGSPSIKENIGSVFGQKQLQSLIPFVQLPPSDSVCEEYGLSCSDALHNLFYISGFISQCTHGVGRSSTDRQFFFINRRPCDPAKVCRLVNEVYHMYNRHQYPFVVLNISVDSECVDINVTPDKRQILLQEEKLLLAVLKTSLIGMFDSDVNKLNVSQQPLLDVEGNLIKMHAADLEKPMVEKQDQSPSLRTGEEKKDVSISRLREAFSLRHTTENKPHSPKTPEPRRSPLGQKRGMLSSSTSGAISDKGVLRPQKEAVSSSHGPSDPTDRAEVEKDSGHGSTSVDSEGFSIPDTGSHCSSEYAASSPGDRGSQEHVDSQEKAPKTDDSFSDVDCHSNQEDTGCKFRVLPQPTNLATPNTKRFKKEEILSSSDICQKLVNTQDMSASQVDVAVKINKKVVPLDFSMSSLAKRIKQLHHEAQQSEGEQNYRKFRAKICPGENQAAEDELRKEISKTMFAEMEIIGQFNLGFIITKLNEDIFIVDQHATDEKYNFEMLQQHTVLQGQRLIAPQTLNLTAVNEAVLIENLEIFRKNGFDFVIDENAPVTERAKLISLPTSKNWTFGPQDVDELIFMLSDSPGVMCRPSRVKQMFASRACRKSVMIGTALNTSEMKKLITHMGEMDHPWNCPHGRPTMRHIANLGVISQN

Variants of: B1
Conditions: with exo1_human EXO1, Q9UQ84
For R265H, the “effect of a mutation on the interaction” value was “with no effect”. With I68N the “effect of a mutation on the interaction” value was “disrupting interaction strength”. In the case of V185G, the “effect of a mutation on the interaction” value is reported as “disrupting interaction strength”. With I107R the “effect of a mutation on the interaction” value was “disrupting interaction strength”. For V213M, the “effect of a mutation on the interaction” value was “with no effect”. R217C was tested, and the “effect of a mutation on the interaction” value was “with no effect”. In the case of S44F, the “effect of a mutation on the interaction” value is reported as “disrupting interaction strength”. In the case of S406N, the “effect of a mutation on the interaction” value is reported as “with no effect”. P28L was tested, and the “effect of a mutation on the interaction” value was “disrupting interaction strength”. T117M was tested, and the “effect of a mutation on the interaction” value was “disrupting interaction strength”. In the case of T117R, the “effect of a mutation on the interaction” value is reported as “disrupting interaction strength”. For G67R, the “effect of a mutation on the interaction” value was “disrupting interaction strength”. G244D was tested, and the “effect of a mutation on the interaction” value was “disrupting interaction strength”. With M35R the “effect of a mutation on the interaction” value was “disrupting interaction strength”. For I32V, the “effect of a mutation on the interaction” value was “with no effect”. I219V was tested, and the “effect of a mutation on the interaction” value was “with no effect”. I219L was tested, and the “effect of a mutation on the interaction” value was “with no effect”. In the case of V326A, the “effect of a mutation on the interaction” value is reported as “with no effect”. In the case of C77Y, the “effect of a mutation on the interaction” value is reported as “disrupting interaction strength”. A128P was tested, and the “effect of a mutation on the interaction” value was “disrupting interaction strength”.

Variants of: B2
Conditions: with pms2_human PMS2, P54278
I68N was tested, and the “effect of a mutation on the interaction” value was “with no effect”. A128P was tested, and the “effect of a mutation on the interaction” value was “with no effect”. In the case of T117M, the “effect of a mutation on the interaction” value is reported as “with no effect”. With T117R the “effect of a mutation on the interaction” value was “with no effect”. C77Y was tested, and the “effect of a mutation on the interaction” value was “with no effect”. V185G was tested, and the “effect of a mutation on the interaction” value was “with no effect”. With M35R the “effect of a mutation on the interaction” value was “with no effect”. In the case of P28L, the “effect of a mutation on the interaction” value is reported as “with no effect”. With S44F the “effect of a mutation on the interaction” value was “with no effect”. V326A was tested, and the “effect of a mutation on the interaction” value was “with no effect”. I107R was tested, and the “effect of a mutation on the interaction” value was “with no effect”. For G244D, the “effect of a mutation on the interaction” value was “with no effect”. For G67R, the “effect of a mutation on the interaction” value was “with no effect”.

Variants of: B2
Conditions: with pms2_human PMS2, P54278
Remark: another data set of the same source
In the case of I68N, the “effect of a mutation on the interaction” value is reported as “disrupting interaction strength”. In the case of A128P, the “effect of a mutation on the interaction” value is reported as “disrupting interaction strength”. In the case of R217C, the “effect of a mutation on the interaction” value is reported as “with no effect”. For T117M, the “effect of a mutation on the interaction” value was “disrupting interaction strength”. With T117R the “effect of a mutation on the interaction” value was “disrupting interaction strength”. For C77Y, the “effect of a mutation on the interaction” value was “disrupting interaction strength”. For V185G, the “effect of a mutation on the interaction” value was “disrupting interaction strength”. In the case of M35R, the “effect of a mutation on the interaction” value is reported as “disrupting interaction strength”. For P28L, the “effect of a mutation on the interaction” value was “disrupting interaction strength”. With S406N the “effect of a mutation on the interaction” value was “with no effect”. I32V was tested, and the “effect of a mutation on the interaction” value was “with no effect”. I219L was tested, and the “effect of a mutation on the interaction” value was “with no effect”. With I219V the “effect of a mutation on the interaction” value was “with no effect”. For S44F, the “effect of a mutation on the interaction” value was “disrupting interaction strength”. In the case of I107R, the “effect of a mutation on the interaction” value is reported as “disrupting interaction strength”. G244D was tested, and the “effect of a mutation on the interaction” value was “disrupting interaction strength”. With V213M the “effect of a mutation on the interaction” value was “with no effect”. For R265H, the “effect of a mutation on the interaction” value was “with no effect”. With G67R the “effect of a mutation on the interaction” value was “disrupting interaction strength”.

Variants of: B2
Conditions: with pms2_human PMS2, P54278
Remark: another data set of the same source
With C77Y the “effect of a mutation on the interaction” value was “decreasing interaction strength”.
